Data: paper PMC6715182, “Helicobacter pylori senses bleach (HOCl) as a chemoattractant using a cytosolic chemoreceptor” (PLoS Biology, 2019)

Experiments:
[1] = target: T1, Helicobacter pylori chemotaxis protein A (CheA), histidine kinase, recombinant (H. pylori (G27 strain), UniProt B5Z859 1-807); assay: kinase activity titration (radio-ATP labelling of CheA autophosphorylation); CheW titrated against 4 μM CheA, 1 mM ATP; kobs values fit to a binding isotherm; kinetically defined, estimated KD; 50 mM Tris (pH 7.5), 100 mM NaCl, 10 mM MgCl2, 20°C; settings: both partners purified
T1 construct: CheA histidine kinase of H. pylori strain G27, Uniprot B5Z859; no limits stated; No cleavage of the tag is described for CheA; also called HpCheA; source: E. coli ArcticExpress DE3, purified (Ni-NTA, gel filtration)
T1 sequence: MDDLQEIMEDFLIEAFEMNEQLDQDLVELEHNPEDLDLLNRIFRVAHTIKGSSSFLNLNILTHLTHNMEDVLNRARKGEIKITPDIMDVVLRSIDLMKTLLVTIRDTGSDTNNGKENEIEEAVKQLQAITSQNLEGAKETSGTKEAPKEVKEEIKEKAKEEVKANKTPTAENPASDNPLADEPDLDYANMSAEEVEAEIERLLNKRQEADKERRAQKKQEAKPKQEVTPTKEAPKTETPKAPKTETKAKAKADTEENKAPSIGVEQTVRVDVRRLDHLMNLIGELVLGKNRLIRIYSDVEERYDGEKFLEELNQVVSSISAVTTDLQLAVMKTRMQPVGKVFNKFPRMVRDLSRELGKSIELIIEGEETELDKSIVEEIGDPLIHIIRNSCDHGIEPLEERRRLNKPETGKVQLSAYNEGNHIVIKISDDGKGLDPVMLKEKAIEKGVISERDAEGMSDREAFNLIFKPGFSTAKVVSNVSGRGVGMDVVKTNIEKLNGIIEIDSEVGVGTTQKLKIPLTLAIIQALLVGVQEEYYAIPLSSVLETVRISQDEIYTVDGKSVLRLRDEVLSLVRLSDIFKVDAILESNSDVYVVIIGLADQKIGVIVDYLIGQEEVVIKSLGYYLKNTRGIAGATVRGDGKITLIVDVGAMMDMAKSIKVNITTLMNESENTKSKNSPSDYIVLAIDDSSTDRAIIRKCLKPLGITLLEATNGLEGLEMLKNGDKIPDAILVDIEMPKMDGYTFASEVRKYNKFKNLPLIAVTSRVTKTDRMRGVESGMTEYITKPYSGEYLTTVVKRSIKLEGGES

[2] = target: T1, Helicobacter pylori chemotaxis protein …; assay: cell-based or functional assay
[3] = target: the molecule itself; assay: AUC; interference; 1, 2 and 3 x 10 μM TlpD and 3 x 28 μM TlpD(-His) in PBS (pH 7), 1 mM TCEP, 20°C, 55,000 rpm; monomer and dimer peaks integrated (SedFit); dimer to monomers
[4] = target: T2, CheW-CheA complex (4 μM CheA with 40 μM CheW) (H. pylori (G27 strain) | H. pylori (SS1 …, UniProt B5Z859 1-807; O25152 1-165); assay: cell-based or functional assay
T2 sequence 1: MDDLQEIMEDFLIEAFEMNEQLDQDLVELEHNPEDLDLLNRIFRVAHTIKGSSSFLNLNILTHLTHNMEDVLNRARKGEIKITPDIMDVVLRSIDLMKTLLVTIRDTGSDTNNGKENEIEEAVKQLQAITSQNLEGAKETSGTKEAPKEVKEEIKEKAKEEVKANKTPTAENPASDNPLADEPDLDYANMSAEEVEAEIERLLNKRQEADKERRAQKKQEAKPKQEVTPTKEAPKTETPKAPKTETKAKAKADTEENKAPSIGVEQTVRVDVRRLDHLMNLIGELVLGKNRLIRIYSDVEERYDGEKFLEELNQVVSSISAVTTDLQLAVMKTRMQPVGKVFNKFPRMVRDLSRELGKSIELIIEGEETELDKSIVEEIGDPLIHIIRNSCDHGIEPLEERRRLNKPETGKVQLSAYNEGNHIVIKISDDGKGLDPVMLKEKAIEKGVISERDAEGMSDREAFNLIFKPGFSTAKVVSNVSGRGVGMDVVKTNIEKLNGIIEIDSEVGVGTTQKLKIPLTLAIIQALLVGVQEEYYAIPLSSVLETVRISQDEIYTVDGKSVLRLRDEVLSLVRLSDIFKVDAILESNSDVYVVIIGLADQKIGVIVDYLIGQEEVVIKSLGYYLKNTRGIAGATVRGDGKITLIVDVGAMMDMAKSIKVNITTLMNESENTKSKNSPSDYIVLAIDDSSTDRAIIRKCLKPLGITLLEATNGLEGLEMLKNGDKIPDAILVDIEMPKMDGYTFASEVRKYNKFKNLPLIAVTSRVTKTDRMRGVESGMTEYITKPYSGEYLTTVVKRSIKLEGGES
T2 sequence 2: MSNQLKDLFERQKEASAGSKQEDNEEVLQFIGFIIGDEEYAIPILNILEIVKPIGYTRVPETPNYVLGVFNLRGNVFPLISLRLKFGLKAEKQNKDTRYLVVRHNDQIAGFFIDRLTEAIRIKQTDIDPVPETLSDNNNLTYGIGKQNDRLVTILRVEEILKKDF

[5] = target: T2, CheW-CheA complex (4 μM CheA with 40 μM …); assay: kinase activity titration (radio-ATP labelling of CheA autophosphorylation); TlpD titrated against 4 μM CheA and 40 μM CheW, 1 mM ATP; kobs values fit to a binding isotherm; CheA-CheW complex approximated as 2 μM; kinetically defined, estimated KD; 50 mM Tris (pH 7.5), 100 mM NaCl, 10 mM MgCl2, 20°C; settings: both partners purified

B1: Helicobacter pylori chemotaxis protein W (CheW), recombinant (natural protein)
chain: MSNQLKDLFERQKEASAGSKQEDNEEVLQFIGFIIGDEEYAIPILNILEIVKPIGYTRVPETPNYVLGVFNLRGNVFPLISLRLKFGLKAEKQNKDTRYLVVRHNDQIAGFFIDRLTEAIRIKQTDIDPVPETLSDNNNLTYGIGKQNDRLVTILRVEEILKKDF
notes: CheW scaffold protein of H. pylori strain SS1, Uniprot A0A1U9ITT8; no limits stated; source: E. coli ArcticExpress DE3, purified (Ni-NTA, gel filtration)
B1 was tested, and the Kd [1] was 14.6 µM and the “CheA autophosphorylation (radio-ATP labelling), titration of CheW against 4 μM CheA, maximal activation over CheA alone” value [2] was 2.7 fold.

B2: Helicobacter pylori TlpD lacking the N-terminal His tag, TlpD(-His) (receptor)
chain: not shown
notes: TlpD, cytosolic chemoreceptor of H. pylori strain SS1, Uniprot A0A1U9IUC7; no limits stated; Tag cut by TEV protease; source: E. coli ArcticExpress DE3, purified (Ni-NTA, TEV protease, repurified, gel filtration)
With B2 the Kd [3] was 0.0648 µM and the “stoichiometry N” value [3] was 2.

B3: Helicobacter pylori transducer-like protein D (TlpD), recombinant, with intact N-terminal His tag (receptor)
chain: not shown
notes: TlpD, cytosolic chemoreceptor of H. pylori strain SS1, Uniprot A0A1U9IUC7; Monomer-dimer equilibrium; copies 2 is the dimer form; also called HpTlpD; TlpD(+His); source: E. coli ArcticExpress DE3, purified (Ni-NTA, gel filtration)
With B3 the Kd [3] was 0.189 µM, the “stoichiometry N” value [3] was 2 and the “CheA autophosphorylation (radio-ATP labelling), titration of TlpD against 4 μM CheA and 40 μM CheW, maximal activation over CheA alone” value [4] was 14.6 fold. It also gave a Kd [5] of 15.2 µM.
